Experimental findings from patent publication US20060286568A1 are described below.

The target of one assay is eGFP-EAAT4. Briefly: cell-based or functional assay.
The target of a further assay is eGFP-EAAT3. Put plainly: cell-based or functional assay.

In the assay with eGFP-EAAT4, “myc-tagged wildtype β-III spectrin (SP-WT) (from UniProt O15020 2-2390)” gave a % of diffraction spots not moving (TIRF microscopy, HEK293 cells) of 94.2% and a diffraction spots moving at or near the membrane (TIRF microscopy, HEK293 cells) of 5%. The substance also returned a % of diffraction spots not moving (TIRF microscopy, HEK293 cells) in the assay with eGFP-EAAT3 of 58.7%.
On to “myc-tagged mutant β-III spectrin with the 39 bp American SCA5 deletion (SP-Δ39; p.E532_M544del) (from UniProt O15020 2-2390)”, for which the % of diffraction spots not moving (TIRF microscopy, HEK293 cells) with eGFP-EAAT4 is 67.5%.
